According to the supplement of paper PMC12764529:
± gives the half width of the 95% confidence interval.

Assays:
[1] = folding stability dG unfold from chymotrypsin proteolysis; higher = more stable
In short: (§1)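 Unfolding free energy was derived, per protease or combined, by relating Bayesian-fitted K50 values from sequencing counts to a sequence-predicted unfolded-state K50 and a shared folded-state K50. The underlying digests exposed cysteine-free mini-proteins under 80 residues, in a PA-tagged cDNA display construct, to trypsin and chymotrypsin at 11 threefold-diluted concentrations and to a no-protease condition. A filter kept only designs with AlphaFold2 dimer inter-PAE above 15.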

[2] = folding stability dG unfold from trypsin proteolysis; higher = more stable
In short: as §1

[3] = folding stability dG unfold (combined trypsin and chymotrypsin); higher = more stable
In short: as §1

Row | Sequence | folding stability dG unfold [1] [kcal/mol] | folding stability dG unfold [2] [kcal/mol] | folding stability dG unfold [3] [kcal/mol]
1 | SAGMVIVDPKTKKKITFDKESGEIYIEVDGKKKKIKLKPGEKVEIEIIEKDGKLIIKIKANGKIIEIEPSAG [r5_858_TrROS_Hall] | 2.09 ± 0.12 | 1.56 ± 0.17 | 1.75 ± 0.2
2 | SAGMVKAKLKVIPVTVDGKPKLYVKVELEIPGGPKFELVFETGSPEKAKELLEKLGLKVKDEDIEIEESSAG [r5_233_TrMRF] | 3.69 ± 0.14 | 2.83 ± 0.11 | 3.34 ± 0.18
3 | SAGMVKITVPSSVGPVDPSKALTFEKDDTRYILVPGEVAKEIEEKYPDLPIEIEPMSEEEAEKILKELSAGG [r19_271_JUSTAS] | 0.624 ± 0.16 | -0.0536 ± 0.2 | 0.258 ± 0.41
4 | SAGMVLEYEGVDEEEKLLARAEELRAELRARHPRVRVELEVEVKPTPGNKYRYRVTLTIEPLAPDEARASAG [r5_936_JUSTAS] | 2.09 ± 0.11 | 1.75 ± 0.11 | 1.99 ± 0.15
5 | SAGMVRIETYTHPDGTLRLVVYRPETGERAVFEFPLEDPEKFREAVEELAERLREEGFPVEVDIRPTLPSAG [r5_815_TrMRF] | 4.296 ± 0.023 | 3 ± 0.086 | 3.97 ± 0.049
6 | SAGMVTLRVKLKDGRELEIQLASEEEIESLPPGAKVIPIPAESEEEALEAAARLLAEEEGLEIEEVEKVSAG [r5_119_TrROS_Hall] | 0.564 ± 0.074 | 0.671 ± 0.022 | 0.638 ± 0.049
7 | SAGMYLVKITVTNEDGEKKEITVLVEAETEEEAREAAEELARELAEKYPEKIVEVKVEVVKLPPEVEPSAGG [r19_335_TrROS_Hall] | 4.77 ± 0.16 | 4.12 ± 0.19 | 4.98 ± 0.66
8 | SAGMYTITISRLPGGEYEVRVTDAANGEEVARRPVASEEEARAEAERIAAEIAEADPDVEVRVSESDAESAG [r5_383_JUSTAS] | 2.959 ± 0.023 | 2.51 ± 0.066 | 2.83 ± 0.04
9 | SAGNIKIKEVEINDNTLTISYRMPGSGMWVKASIQADKGAIKIKSEYYPPKGKPIGEEEFTVPLDELKLSAG [r5_308_TrROS] | 1.74 ± 0.31 | 0.979 ± 0.042 | 1.45 ± 0.28
10 | SAGNIKISYDPDDGWLTITFPVAPGQEFSFKLNIMLPENGAKIKNVEVTGPLKDGQPVTITMKVTGIKPSAG [r5_737_TrROS] | 3.77 ± 0.064 | 2.2 ± 0.13 | 3.27 ± 0.11
11 | SAGNIMVQVEPDPGGTVKVEIMFMIPLPNGWPIMIQIEWEVRVDEDGEPELKMPIEIFFSEEALDKGFSAGG [r19_63_TrROS] | 1.99 ± 0.029 | 2.06 ± 0.11 | 2.09 ± 0.13
12 | SAGNSNTRYIVRIKIKKYNPETGKIEEIEIDVPISDDDLNIPVEKIIEALKKAFPNTEIEAEITKVPASAGG [r19_189_TrMRF] | 3.88 ± 0.13 | 3.77 ± 0.29 | 3.74 ± 0.17
13 | SAGNVTIRISFYPRKDGWFFRIKVHFDGKPRELMIPPDDSAEDLADELEKKLGADVTDIEVEWMPLEDGSAG [r5_181_TrROS] | 4.25 ± 0.083 | 3.27 ± 0.1 | 3.88 ± 0.12
14 | SAGPAPGAPWEKVEIVAEAWVPTAGGKAVPVVLARAPDGSLLATFPDGTVRVVVPGAGPEVTVELPLASAGG [r19_199_TrMRF] | 2.032 ± 0.016 | 0.115 ± 0.046 | 1.62 ± 0.065
15 | SAGPEKPFDIVIVEVKSMEVHEDPNGRRSVRIPVVARIPGGYYIRFEIWINPPTGNVSIDWEIVPLDDSAGG [r19_320_TrROS] | 4.21 ± 0.12 | 2.73 ± 0.047 | 3.82 ± 0.14
16 | SAGPEREVEVETLVIEAEDGKERLVLRLVRVDGRLYLEVRRYRDGKWEEVARFEAPEEITLSPELLKALSAG [r5_490_TrROS_Hall] | 4.219 ± 0.039 | 4.09 ± 0.091 | 4.16 ± 0.078
17 | SAGPFILVKFVTPDGRPLYYVIEIPESEEPEKLTLEQALEVAEAIAKALASKGGFEVKEVKIVSPEEFSAGG [r19_27_TrMRF] | 3.802 ± 0.023 | 3.43 ± 0.083 | 3.66 ± 0.057
18 | SAGPGAELVAEFEVELGDRGARIRIYRAPDFLIIRVDYPDGTVPVFRIDPRTGRIVEVRTFRVRPDLPLSAG [r14_676_TrMRF] | 1.91 ± 0.098 | 2.56 ± 0.045 | 2.28 ± 0.11

Row | Sequence | folding stability dG unfold [1] [kcal/mol] | folding stability dG unfold [2] [kcal/mol] | folding stability dG unfold [3] [kcal/mol]
19 | SAGPIKELLEFLKANPDAVVEFEFTLPNGAKVKIKAKKFPDAVVLEVTTIDPNNKKPITGTITIPLPESAGG [r19_143_TrMRF] | 3.49 ± 0.072 | 4.15 ± 0.13 | 3.81 ± 0.13
20 | SAGPKMKPIPFEFRNPDNGHKVKISVYYNPNGKRKIMITNPGDGRIYTFKINPGGIEIEKEIPLDDIKFSAG [r5_619_TrROS] | 0.857 ± 0.67 | 1.13 ± 0.13 | 0.83 ± 0.36
21 | SAGPKNREIKVRIQFNGNWVEYKMPDNDLKELVKNGGLQIAGVDPEKDEIMIQIPVPPPKPDPEDGKPKSAG [r5_868_TrROS] | 1.23 ± 0.083 | -0.0867 ± 0.19 | 0.773 ± 0.15
22 | SAGPKVKLIKAEFFPDGRLVVYAEVESSNGEPAFAVGVFDPRNPNKAHVKVYNPSTGKVSEFEVTVTPGSAG [r5_345_TrMRF] | 3.24 ± 0.042 | 2.57 ± 0.054 | 3 ± 0.035
23 | SAGPLPEDVAAGKPVDVEAPIPLRRKDGDLLAVFPITGPMTVKELLEVLEAIRERARELDLPPVEDLDRSAG [r5_606_TrMRF] | -0.268 ± 0.21 | 0.36 ± 0.047 | 0.181 ± 0.065
24 | SAGPLTVTVEGDTLTVTVPLTDVPADATVRVTVTVGDKTEEYTVPPSESITVTVPSSAVEVTVERLPPASAG [r5_867_JUSTAS] | 2.44 ± 0.082 | 2.09 ± 0.085 | 2.36 ± 0.12
25 | SAGPMTLEILYKRPANEPFTLEDLELAKEVEEAVAALVPSKYKVRIKSIEYEKYPDYYYIRVTIEVEKPSAG [r5_121_TrMRF] | 4.71 ± 0.061 | 4.57 ± 0.13 | 4.64 ± 0.083
26 | SAGPNLENLEIVEIKAEVLPDNSVIVPLKVRNDNGEEEEVWGRVGNGIVTLTYPNGFPAVAFIPPSAFSAGG [r19_84_TrMRF] | 0.576 ± 0.089 | 0.683 ± 0.033 | 0.651 ± 0.051
27 | SAGPPKKVEIPVRYPFDGWEIMIQIDPKDPKIEIHVHNPEHRERAREYARTIARIFQENGIPVEIEPWSAGG [r19_354_TrROS] | 1.91 ± 0.095 | 1.48 ± 0.057 | 1.73 ± 0.21
28 | SAGPPVEIPITIKIRYWKPDPDGPKPVEERTIPIPVRMPPDQLDDPAFNNFIKEALDELPPGIRMIEITSAG [r5_849_TrROS] | 1.28 ± 0.064 | 0.526 ± 0.042 | 1.07 ± 0.068
29 | SAGPPVLALFTGSPEDVQELLDRLPPDFEVEVGRLPDLYVARFPPDVPPGTVLLPGADGRPAVVEVVEASAG [r5_123_TrMRF] | 1.68 ± 0.037 | 0.526 ± 0.041 | 1.14 ± 0.12
30 | SAGPVTIPIFYRVPPGEPMTPEAKEFAIELAKYIARLFPPGYKIEIDSIEWERHPNYYYFRVTIEIEPPSAG [r5_121_TrROS] | 3.8 ± 0.085 | 3.64 ± 0.16 | 3.62 ± 0.27
31 | SAGPVVVDPNGKLLPLKVKAVFVIDPELLEEKAKESDNSLEKAIRDLVKELEAELKAKGYDVEVEGIGSAGG [r19_305_TrMRF] | 1.97 ± 0.049 | 1.12 ± 0.067 | 1.68 ± 0.061
32 | SAGPWMPYYVKVKFPDEEKLEKLVDEIQDESGFNMQVKKNPENGTRTVRVNMPPNIMEALKKHGFEIVSAGG [r19_306_TrROS] | -0.208 ± 0.46 | 0.415 ± 0.11 | 0.337 ± 0.34
33 | SAGPWRIKEVDPDSYTIEIRFGDRPIEIKIPPGKEPSIMIEMDPDGHFQLTIRVPDRTRTFTIPFDDIRSAG [r5_500_TrROS] | 0.591 ± 0.25 | 0.86 ± 0.13 | 0.674 ± 0.19
34 | SAGPWWMITIRLPGNKTITIMFPGVKVEVDPKNNTIRIRNPGLGHSIEFKFDPPGKIKDVDIEPIPPNASAG [r5_342_TrROS] | 4.49 ± 0.13 | 3.39 ± 0.21 | 3.95 ± 0.18
35 | SAGQTITFELKDPDITPEELQKKLQKRFGMKPMNIKPVEPDPDGWRFVIEFPENGGTRTFPWEEIRELISAG [r5_550_TrROS] | 1.12 ± 0.18 | 0.861 ± 0.11 | 1.03 ± 0.13
36 | SAGQWVKFTLPIYKMKYEKDKDGKPEIKEMKPIPKFDIEARVDEDGNVRIRFGGNEREFPPGESLEDLISAG [r14_909_TrROS] | 0.482 ± 0.28 | 0.0407 ± 0.21 | 0.478 ± 0.24
